Reference: PMC3176292, “Mutations in Protein-Binding Hot-Spots on the Hub Protein Smad3 Differentially Affect Its Protein Interactions and Smad3-Regulated Gene Expression” (PLoS ONE, 2011)

T1: Ski Smad-binding domain (amino acids 2–56) on the 3xFlag-thioredoxin scaffold (UniProt P12755 2-56)
T1 construct: Ski, amino acids 2–56; cloned into the unique RsrII site of pCI-3xFLAG-Trx; also called Ski aa2–56; TrxSki; source: HEK-293, transfected, in lysate
T1 sequence (looked up): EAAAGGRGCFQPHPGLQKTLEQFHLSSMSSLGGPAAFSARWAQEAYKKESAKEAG

T2: SARA Smad-binding domain (amino acids 665–721) on the 3xFlag-thioredoxin scaffold (UniProt O95405 767-823)
T2 construct: SARA, amino acids 665–721; cloned into the unique RsrII site of pCI-3xFLAG-Trx; also called SARA aa665–721; TrxSARA; source: HEK-293, transfected, in lysate
T2 sequence (looked up): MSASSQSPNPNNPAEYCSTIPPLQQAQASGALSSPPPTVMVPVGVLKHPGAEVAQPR

T3: Flag-Smad4, full length (UniProt Q13485 1-552)
T3 construct: Smad4; plasmid pCMV5-Flag-Smad4 (from J. Massagué); also called Smad4 FL; source: HEK-293, transfected, in lysate
T3 sequence (looked up): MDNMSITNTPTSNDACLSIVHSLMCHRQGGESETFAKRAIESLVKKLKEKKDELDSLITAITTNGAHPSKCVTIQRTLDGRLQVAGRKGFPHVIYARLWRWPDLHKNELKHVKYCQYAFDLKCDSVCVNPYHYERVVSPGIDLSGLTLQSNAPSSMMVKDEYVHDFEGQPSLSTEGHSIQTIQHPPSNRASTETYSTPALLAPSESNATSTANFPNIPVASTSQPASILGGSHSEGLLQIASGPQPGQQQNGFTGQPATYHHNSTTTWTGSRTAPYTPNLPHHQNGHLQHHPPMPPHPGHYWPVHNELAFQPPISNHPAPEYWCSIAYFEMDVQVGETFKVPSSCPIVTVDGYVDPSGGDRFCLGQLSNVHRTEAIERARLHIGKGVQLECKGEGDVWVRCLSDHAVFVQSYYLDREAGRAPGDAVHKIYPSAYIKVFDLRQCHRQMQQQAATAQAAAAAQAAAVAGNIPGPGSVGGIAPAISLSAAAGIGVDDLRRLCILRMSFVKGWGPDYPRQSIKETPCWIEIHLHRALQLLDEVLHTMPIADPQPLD

B1: Renilla luciferase-Smad3 wild type, co-expressed with constitutively active Alk5 (phosphorylated Smad3) (natural protein, UniProt P84022 1-425, looked up)
chain: MSSILPFTPPIVKRLLGWKKGEQNGQEEKWCEKAVKSLVKKLKKTGQLDELEKAITTQNVNTKCITIPRSLDGRLQVSHRKGLPHVIYCRLWRWPDLHSHHELRAMELCEFAFNMKKDEVCVNPYHYQRVETPVLPPVLVPRHTEIPAEFPPLDDYSHSIPENTNFPAGIEPQSNIPETPPPGYLSEDGETSDHQMNHSMDAGSPNLSPNPMSPAHNNLDLQPVTYCEPAFWCSISYYELNQRVGETFHASQPSMTVDGFTDPSNSERFCLGLLSNVNRNAAVELTRRHIGRGVRLYYIGGEVFAECLSDSAIFVQSPNCNQRYGWHPATVCKIPPGCNLKIFNNQEFAALLAQSVNQGFEAVYQLTRMCTIRMSFVKGWGAEYRRQTVTSTPCWIELHLNGPLQWLDKVLTQMGSPSIRCSSVS
modifications: phosphorylated by the co-expressed activated Alk5 kinase (sites not given)
notes: Smad3; plasmid pCMV5-hRLuc-Smad3 (from J. Wrana); also called Smad3 WT+Alk5; Renilla-Smad3; source: HEK-293, transfected together with constitutively active Alk5, in lysate
B2: Renilla luciferase-Smad3 wild type, without Alk5 (not phosphorylated) (natural protein, UniProt P84022 1-425, looked up)
chain: B1 chain
notes: Smad3; also called Smad3 WT, No Alk5; source: HEK-293, transfected without Alk5, in lysate
B3: Renilla luciferase-Smad3 QPSMT/SE mutant (residues 252–256 and 266–267 changed to the Smad1 equivalents STSVL/NKN) (natural protein, UniProt P84022 1-425, looked up)
chain: MSSILPFTPPIVKRLLGWKKGEQNGQEEKWCEKAVKSLVKKLKKTGQLDELEKAITTQNVNTKCITIPRSLDGRLQVSHRKGLPHVIYCRLWRWPDLHSHHELRAMELCEFAFNMKKDEVCVNPYHYQRVETPVLPPVLVPRHTEIPAEFPPLDDYSHSIPENTNFPAGIEPQSNIPETPPPGYLSEDGETSDHQMNHSMDAGSPNLSPNPMSPAHNNLDLQPVTYCEPAFWCSISYYELNQRVGETFHASSTSVLVDGFTDPSNNKNRFCLGLLSNVNRNAAVELTRRHIGRGVRLYYIGGEVFAECLSDSAIFVQSPNCNQRYGWHPATVCKIPPGCNLKIFNNQEFAALLAQSVNQGFEAVYQLTRMCTIRMSFVKGWGAEYRRQTVTSTPCWIELHLNGPLQWLDKVLTQMGSPSIRCSSVS
notes: Smad3 with two stretches replaced by those of Smad1; source plasmid pcDNA3-Flag-Smad3(STSVL/NKN) from K. Miyazono; assayed as Renilla fusion; also called Smad3(STSVL/NKN); Smad1/3 chimeric protein; source: HEK-293, transfected together with constitutively active Alk5, in lysate

Tests used:
Conditions in all cases: partners not purified
[1] = target: T1, Ski Smad-binding domain (amino acids …); test: co-IP; LUMIER: Renilla luciferase-Smad3 and Flag-tagged partner co-expressed with constitutively active Alk5 in HEK-293; Flag protein captured from cleared lysate (TNE: 10 mM Tris-HCl pH 7.8, 150 mM NaCl, 1 mM EDTA, 1% Igepal CA-630) on anti-Flag 96-well plates, 2 h at 4 °C; co-precipitated Renilla luciferase activity, TrxGA background subtracted, percent of wild-type Smad3
[2] = target: T4, Smurf2 Smad-binding domain (amino acids 252–330) on the Flag-thioredoxin scaffold (UniProt Q9HAU4 252-330); test: as above
T4 construct: Smurf2, amino acids 252–330; also called Smurf2 aa252–330; TrxSmurf2; source: HEK-293, transfected, in lysate
T4 sequence (Q9HAU4 252-330): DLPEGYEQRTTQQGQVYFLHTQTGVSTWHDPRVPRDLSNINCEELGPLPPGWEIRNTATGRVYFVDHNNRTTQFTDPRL

[3] = target: T2, SARA Smad-binding domain (amino acids …); test: as above
[4] = target: T2, SARA Smad-binding domain (amino acids …); test: co-IP; LUMIER as a1 but without co-expression of the activated Alk5 kinase (Smad3 not phosphorylated); percent of phosphorylated wild-type Smad3
Flag-Smad4, full length = target: T3, Flag-Smad4, full length; test: co-IP; LUMIER: Renilla luciferase-Smad3 and Flag-tagged partner co-expressed with constitutively active Alk5 in HEK-293; Flag protein captured from cleared lysate (TNE: 10 mM Tris-HCl pH 7.8, 150 mM NaCl, 1 mM EDTA, 1% Igepal CA-630) on anti-Flag 96-well plates, 2 h at 4 °C; co-precipitated Renilla luciferase activity, TrxGA background subtracted, percent of wild-type Smad3

Row | Binder | percent binding relative to wild-type Smad3 [1] | percent binding relative to wild-type Smad3 [2] | percent binding relative to wild-type Smad3 [3] | percent binding relative to wild-type Smad3 [4] | percent binding relative to wild-type Smad3 (Flag-Smad4, full length)
1 | B1 | 100% | 100% | 100% |  | 
2 | B2 |  |  |  | 78% | 
3 | B3 | 4% | 86% | 61% |  | 132%
